Measurements as given in patent US20040143859A1 (SANKYO, published 2004).

Biological target: the molecule itself
Assay: SDS-PAGE, reducing (60 KD) against non-reducing (120 KD)
Method: The two protein peaks (6 and 7) with OCIF activity were subjected to SDS-polyacrylamide gel electrophoresis under reducing and non-reducing conditions. Briefly, 20 μl of each peak fraction was concentrated under vacuum and dissolved in 1.5 μl of 10 mM Tris-HCl, pH 8, 1 mM EDTA, 2.5% SDS, 0.01% bromophenol blue, and incubated at 37° C. overnight under non-reducing conditions or under reducing conditions (with 5% of 2-mercaptoethanol). Each 1.0 μl of sample was then analyzed by SDS-polyacrylamide gel electrophoresis with a gradient gel of 10-15% acrylamide (Pharmacia Co.) and an electrophoresis-device (Fast System, Pharmacia Co.). The following molecular weight marker proteins were used to calculate molecular weight:phosphorylase b (94 kD), bovine serum albumin (67 kD), ovalbumin (43 kD), carbonic anhydrase (30 kD), trypsin inhibitor (20.0 kD), and lactalbumin (14.4 kD). After electrophoresis, protein bands were visualized by silver stain using Phast Silver Stain Kit.

B1: osteoclastogenesis inhibitory factor (OCIF), natural, purified from conditioned medium of human fibroblast IMR-90 (other)
chain: ETFPPKYLHYDEETSHQLLCDKCPPGTYLKQHCTAKWKTVCAPCPDHYYTDSWHTSDECLYCSPVCKELQYVKQECNRTHNRVCECKEGRYLEIEFCLKHRSCPPGFGVVQAGTPERNTVCKRCPDGFFSNETSSKAPCRKHTNCSVFGLLLTQKGNATHDNICSGNSESTQKCGIDVTLCEEAFFRFAVPTKFTPNWLSVLVDNLPGTKVNAESVERIKRQHSSQEQTFQLLKLWKHQNKDQDIVKKIIQDIDLCENSVQRHIGHANLTFEQLRSLMESLPGKKVGAEDIEKTIKACKPSDQILKLLSLWRIKNGDQDTLKGLMHALKHSKTYHFPKTVTQSLKKTIRFLHSFTMYKLYQKLFLEMIGNQVQSVKISCL
modifications: N-terminus blocked (the filing says the N-terminal residue may be converted to pyroglutamine); N-linked sugar chains
notes: Secreted glycoprotein found as a 60 kD monomer and a 120 kD homodimer; also called nOCIF; natural OCIF
binding result: binds
